Each sequence was assayed on MS2 coat protein (assay: apparent KD of MS2 coat protein, switch ON state; designed switch direction (-1 OFF switch, 1 ON switch): 1; higher = weaker reporter binding). Settings: FMN input: 0 or 200 uM; Eterna round: R93 (includes R88 designs).
Method in brief: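 Titrations with SNAP-549-labelled MS2 coat protein ran in twofold steps from 0.7 or 1.5 nM to 3 µM, each step taking 0.8–1.5 h at the start and 10–20 min toward the end. The targets were designed RNA switches transcribed on-chip from Illumina sequencing clusters, held in 100 mM Tris-HCl pH 7.5, 80 mM KCl, 4 mM MgCl2, without or with constant ligand. Apparent KD was taken per design as the median of normalised cluster binding-curve fits.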

Row | Sequence | apparent KD of MS2 coat protein
1 | GAAAUACAUGAGGAUCACCCAUGUUAGGUGGGUCAAGGAUAUUGAGAUAAAUAAAAAUCUCGAGAAGGUGAAUAAA [JR_SS001_Sub202] | 87.7 nM
2 | GAUAAACAUGAGGAUCACCCAUGUAGAUAUAUGGGAGGAUAUACAAAGACGAUAGUCAAAGUAGAAGGCCUAAUAG [77%, Mat - Mod of Eli - With 4 more U's] | 29.6 nM
3 | GCUUAUCCAUGCUAGGAUAUCGGCGAGAAAACAUGAGGAUCACCCAUGUGCUUGCAUAAAAGUCACGAGAAGGAGCCUGAUGGAC [Quanletira] | 19.7 nM
4 | AAAUAAAUGACUCAGGAUAUAUCAGAGAAAACAUGAGGAUCACCCAUGUAAUAAUAACAUGUGUGGUAGAAGGGAGUCAAUAAAU [LROPPY Same State 2 - v03_deltaG=2.1] | 13.5 nM
5 | AAGUCACAUGAGGAUCACCCAUGUCGUAAACGAUGAGGAUAUAGGAAAAAAAAAAAAAAACUAGAAGGUAUAACAA [SameState1-01] | 35 nM
6 | AAAUAAAUAAAAAAGGAUAUAAAAAAGUACACAUGAGGAUCACCCAUGUGUACACAUGGGUGAUCCUAGAAGGAAAAAUAAAAAA [SS2: 91 No MS2] | 117 nM
7 | AAACCACAUGAGGAUCACCCAUGUCCAAAAAAACAAGGAUAUAUAAAAAAAAAAAAAAAAAUAGAAGGUGUAAAAA [<insert title here>] | 75.5 nM
8 | AAUAUACAUGAGGAUCACCCAUGUUUUAAUAACUCAGGAUAUACGGGUGAAAACAGCAUAGUAGAAGGGAGAAAAA [SameState1 Malc#2] | 44 nM
9 | AAAAGACAUGAGGAUCACCCAUGUAAAAACAUAGGAGGAUAUGUCUUGAAAAAAGACUUGACAGAAGGCCUUUGUC [SS1 - 52] | 39.5 nM
10 | GAAAAACAUGAGGAUCACCCAUGUAGAAAUAUGGGAGGAUAUACAAAGACGAAAGUCAAAGUAGAAGGCCUAAAGA [Mat - Same State 1 - Eli mod - 34] | 15.5 nM
11 | AAAAAAAAAAGUGAGGAUAUGGGAAAAUUAACAUGAGGAUCACCCAUGUGAUAAAAAAAAAAAAACCAGAAGGUACAAAAAAAAAA [Same 2] | 26.1 nM
12 | GUGUAAAGAAUCGAGGAUAUCCAAAAAAGCACAUGAGGAUCACCCAUGUAAGAGAGAGAAUAAUGGGAGAAGGCGAGUUAUCGGU [JR_SS002_Sub1712] | 18.1 nM
13 | CGAAAGGAGAGAGAGGAUAUCCAAAGGAAAACAUGAGGAUCACCCAUGUAGAAGGUAGGAGAUUGGGAGAAGGCUCAAGAGAGUA [salish99-ss2-149] | 25.7 nM
14 | CGAAAGUAUGCACAGGAUAUGUACAGGCUAACAUGAGGAUCACCCAUGUGAAAAUGGACCAUGUCGCAGAAGGGUGCCCUCCCGA [Mageor] | 22.1 nM
15 | AGCAUCACCAGUCAGGAUAUGUAGGCCUUGACAUGAGGAUCACCCAUGUGGACGAAACACCGGCCACAGAAGGGAUUGUAAAUAA [Ries] | 434 nM
16 | AGCGAACAUGAGGAUCACCCAUGUCCCGCGAAUCAAGGAUAUGGGCAGAUGAGUCCUGCGCCAGAAGGUGAGUAAA [Rigeesar] | 49.6 nM
17 | AAAAUACAUGAGGAUCACCCAUGUGAAAAUAUGGGAGGAUAUACCGAAAAAAAAAAAAAGGUAGAAGGCCCAAAAA [SS! 1 MT 5] | 17.1 nM
18 | UUACAGCACAGGUAGGAUAUGUAGGGUGGUACAUGAGGAUCACCCAUGUAUCCACCCUUCGAAAGGCAGAAGGGCCUGUCGCCGC [Leanisqube] | 13.1 nM
19 | AAAAAAAAAAGUCAGGAUAUACAAAUUUUUACAUGAGGAUCACCCAUGUUAAGGAAAAAAAAAAAGUAGAAGGGACAAAAAAAAAA [Same State 2 - Omei 3] | 15.3 nM
20 | UGGAGACAUGAGGAUCACCCAUGUGAGAAGAGGCGAGGAUAUCGAAAAAAAAAAAAAAAACGAGAAGGCGCGAGAA [salish99-SS1-007] | 28.9 nM
21 | AAAAAACAUGAGGAUCACCCAUGUCGAAAGACAUGAGGAUAUGUACAGACUUCGGUCUGUACAGAAGGCAUGAAAA [SS1 - 1012] | 114 nM
22 | GAAAAACAUGAGGAUCACCCAUGUGAGAAUAUGGGAGGAUAUACGAAGACGAGAGUCAAAGUAGAAGGCCUAAAAG [Mat - Same State 1 - Eli mod - 30] | 27.2 nM

Row | Sequence | apparent KD of MS2 coat protein
23 | AAACCACAUGAGGAUCACCCAUGUAAAAAUAUGGGAGGAUAUCGGAAUAAAAUAAAGAAACGAGAAGGCCUAAAAG [59%, Flamingo, 4] | 69.3 nM
24 | AAGAAACAUGAGGAUCACCCAUGUAGAAACAUGGGAGGAUAUACAAAGACGAAAGUCAAAGUAGAAGGCCUAAAAA [Mat - Same State 1 - Mod - D165] | 88.6 nM
25 | AGGAAACAUGAGGAUCACCCAUGUAUAAAAUAGGGAGGAUAUACUAAGACGAAAGUCAUAGUAGAAGGUCCAAAAA [76%, Meechl, 13] | 17.9 nM
26 | CCCUCGCAAUAACAGGAUAUACAUGGUCAAACAUGAGGAUCACCCAUGUGAGGAAGUUGGCGGUCGUAGAAGGGUUGUUGGCUCA [Beisvesoqu] | 42.8 nM
27 | CCCAAUGCAACGAAGGAUAUCCGUCAUGCUACAUGAGGAUCACCCAUGUACUGGCAGCGCAAGGCGGAGAAGGUCGGGUGCUGUG [Leusesbe] | 12 nM
28 | AAUAAACAUGAGGAUCACCCAUGUAGAAAUAUGGGAGGAUAUACAAAGACGAAAGUCAAAGUAGAAGGCCUAAUAA [Mat - Same State 1 - Mod - D153] | 18 nM
29 | AUGAAUAGCAUCGAGGAUAUCCAGUCAUGAACAUGAGGAUCACCCAUGUAAGAGAGAGUAUAAUGGGAGAAGGCGAGUAAUCGAU [JR_SS002_Sub1703] | 40.3 nM
30 | GAAAAACAUGAGGAUCACCCAUGUGGAAAUAUGGGAGGAUAUACAAAGACGGAAGUCAAAGUAGAAGGCCUAAAAG [Mat - Same State 1 - Eli mod - D10] | 26.5 nM
31 | CGAAAGGAGAGAGAGGAUAUCCAAAGGAAAACAUGAGGAUCACCCAUGUAGAAGGUAGGAGAUUGGGAGAAGGCUCAAGAGAGAU [salish99-ss2-147] | 32.1 nM
32 | GGAAGACAUGAGGAUCACCCAUGUGGGAUUAUGGGAGGAUAUACAAAGACGAGAGUCAGAGUAGAAGGCCUAGGAG [salish99-ss1-122(!)] | 61.1 nM
33 | AGACAUAAAAGAGAGGAUAUCCAAAAGAAAACAUGAGGAUCACCCAUGUGAAAGAAAAUAAAAUGGGAGAAGGCUCACAUACAGA [Topaz 36] | 14.1 nM
34 | AACAGACAUGAGGAUCACCCAUGUAGAAUUAUGGGAGGAUAUACAAAGACGAGAGUCAGAGUAGAAGGCCUAGGAA [salish99-ss1-165] | 22 nM
35 | AAUAAUUAUAUGGAGGAUAUCCGUAAUAAGACAUGAGGAUCACCCAUGUAAUAAGGUUAAAUAAAGGAGAAGGCCAAGGGUGAAA [JR_SS002_Sub004] | 129 nM
36 | AAAACACAUGAGGAUCACCCAUGUAGAAAUACGGGAGGAUAUGCGAAAACGAAAGACAAAGCAGAAGGCCUAAAAG [saturn 6] | 12.3 nM
37 | AGAAAUAAAAGAGAGGAUAUGCAAAAGAUAACAUGAGGAUCACCCAUGUAAAAGAAAAUAAAUGGGUAGAAGGCUCAAAAUAAGA [Jieux modified] | 86.4 nM
38 | GAAAAACAUGAGGAUCACCCAUGUGAAAACUUGGGAGGAUAUACAAAGACGAAAGUCGAAGUAGAAGGCCUAUAAG [Same State 1.4l (Mat - Mod of Eli - )] | 21.1 nM
39 | GACGAACAUGAGGAUCACCCAUGUAAAAACGUACAAGGAUAUGUGUGGAAACCGUACUAUACAGAAGGUGUCUGUC [SS1 - 96] | 37.3 nM
40 | AAAUAAAUGACUAAGGAUAUCUCAGAGAAAACAUGAGGAUCACCCAUGUAAUAAUAACAUGUGUGAGAGAAGGUAGUCAACAAAC [Same State 2.4 (Pariah 4 -changed stack on 9nt hairpin)] | 16.1 nM
41 | UAUCCGGCAGUGUAGGAUAUGUUGUAGUCAACAUGAGGAUCACCCAUGUGGAUUAUAUAAGAUUCACAGAAGGGCACUGCAUUGC [Geiner] | 87.8 nM
42 | AAAAGACAUGAGGAUCACCCAUGUCAAAAGACAUGAGGAUAUGUACAGACUUCGGUCUGUACAGAAGGCAUAAAAA [SS1 - 1060] | 18.6 nM
43 | CGGAAGGAGAGAGAGGAUAUCCAAAGGAAAACAUGAGGAUCACCCAUGUAGAAGGUAGGAAAUUGGGAGAAGGCUCAAGAGACAG [salish99-ss2-125] | 25.3 nM

From the supplement of paper PMC9170038
